Assay results taken from patent US20190248900A1 (Y BIOLOGICS, published 2019).

T1: ITGA6-Fc
T1 construct: Fc fusion
T1 sequence (P23229 whole entry, species assumed, looked up): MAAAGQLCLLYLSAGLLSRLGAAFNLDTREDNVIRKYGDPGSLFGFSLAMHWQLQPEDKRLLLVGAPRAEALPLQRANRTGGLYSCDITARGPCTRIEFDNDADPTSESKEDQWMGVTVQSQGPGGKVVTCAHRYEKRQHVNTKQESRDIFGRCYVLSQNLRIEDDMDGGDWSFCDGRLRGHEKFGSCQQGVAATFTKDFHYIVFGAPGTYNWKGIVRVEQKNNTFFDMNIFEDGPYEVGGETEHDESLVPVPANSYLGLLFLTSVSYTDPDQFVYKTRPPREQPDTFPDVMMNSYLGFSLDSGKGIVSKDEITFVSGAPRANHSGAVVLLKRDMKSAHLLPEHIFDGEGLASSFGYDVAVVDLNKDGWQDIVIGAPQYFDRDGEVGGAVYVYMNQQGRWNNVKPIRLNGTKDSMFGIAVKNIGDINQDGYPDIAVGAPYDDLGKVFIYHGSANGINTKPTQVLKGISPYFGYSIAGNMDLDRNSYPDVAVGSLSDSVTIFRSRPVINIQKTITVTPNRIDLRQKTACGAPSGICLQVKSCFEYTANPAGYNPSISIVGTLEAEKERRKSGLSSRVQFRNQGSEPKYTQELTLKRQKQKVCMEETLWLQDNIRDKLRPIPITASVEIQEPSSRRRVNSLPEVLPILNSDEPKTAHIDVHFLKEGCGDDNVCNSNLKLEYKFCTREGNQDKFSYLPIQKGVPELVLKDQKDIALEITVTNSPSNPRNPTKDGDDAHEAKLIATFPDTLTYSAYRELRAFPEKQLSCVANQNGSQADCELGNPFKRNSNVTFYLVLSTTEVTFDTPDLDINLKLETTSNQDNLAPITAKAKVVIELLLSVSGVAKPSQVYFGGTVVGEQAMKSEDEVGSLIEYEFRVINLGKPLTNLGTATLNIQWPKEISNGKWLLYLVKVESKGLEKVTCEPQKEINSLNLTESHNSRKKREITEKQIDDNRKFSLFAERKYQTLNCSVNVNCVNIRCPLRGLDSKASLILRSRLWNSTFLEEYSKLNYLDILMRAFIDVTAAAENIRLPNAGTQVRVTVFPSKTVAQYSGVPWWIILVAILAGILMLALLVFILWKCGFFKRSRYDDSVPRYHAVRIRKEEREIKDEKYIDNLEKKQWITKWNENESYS


Assays:
M4 = target: T2, M4; experiment: scFv-phage ELISA
T2 construct: also called PD1 mutant M4

M5-1 = target: T3, M5-1; experiment: scFv-phage ELISA
T3 construct: also called PD1 mutant M5-1

M10 = target: T4, M10; experiment: scFv-phage ELISA
T4 construct: also called PD1 mutant M10

M2 = target: T5, M2; experiment: scFv-phage ELISA
T5 construct: also called PD1 mutant M2

M14 = target: T6, M14; experiment: scFv-phage ELISA
T6 construct: also called PD1 mutant M14

M2-2 = target: T7, M2-2; experiment: scFv-phage ELISA
T7 construct: also called PD1 mutant M2-2

M12 = target: T8, M12; experiment: scFv-phage ELISA
T8 construct: also called PD1 mutant M12

M7-1 = target: T9, M7-1; experiment: scFv-phage ELISA
T9 construct: also called PD1 mutant M7-1

M7 = target: T10, M7; experiment: scFv-phage ELISA
T10 construct: also called PD1 mutant M7

M11 = target: T11, M11; experiment: scFv-phage ELISA
T11 construct: also called PD1 mutant M11

M6 = target: T12, M6; experiment: scFv-phage ELISA
T12 construct: also called PD1 mutant M6

M1 = target: T13, M1; experiment: scFv-phage ELISA
T13 construct: also called PD1 mutant M1

M2-1 = target: T14, M2-1; experiment: scFv-phage ELISA
T14 construct: also called PD1 mutant M2-1

M5 = target: T15, M5; experiment: scFv-phage ELISA
T15 construct: also called PD1 mutant M5

M3 = target: T16, M3; experiment: scFv-phage ELISA
T16 construct: also called PD1 mutant M3

M1-1 = target: T17, M1-1; experiment: scFv-phage ELISA
T17 construct: also called PD1 mutant M1-1

M7-2 = target: T18, M7-2; experiment: scFv-phage ELISA
T18 construct: also called PD1 mutant M7-2

M13 = target: T19, M13; experiment: scFv-phage ELISA
T19 construct: also called PD1 mutant M13

[1] = target: T20, antigen PD1 (coated, construct not stated) (UniProt Q15116 25-170, limits assumed); experiment: scFv-phage ELISA
T20 construct: also called PD1 antigen; PDCD1

ITGA6-Fc = target: T1, ITGA6-Fc; experiment: scFv-phage ELISA
M5-2 = target: T21, M5-2; experiment: scFv-phage ELISA
T21 construct: also called PD1 mutant M5-2

M1-2 = target: T22, M1-2; experiment: scFv-phage ELISA
T22 construct: also called PD1 mutant M1-2

M9 = target: T23, M9; experiment: scFv-phage ELISA
T23 construct: also called PD1 mutant M9

M8 = target: T24, M8; experiment: scFv-phage ELISA
T24 construct: also called PD1 mutant M8

[2] = target: human PD-1 (NM_005018.2) over-expressed on cells (human, UniProt Q15116 25-288); experiment: cell-based or functional assay
Chain of human PD-1 (NM_005018.2) over-expressed on cells (Q15116 25-288): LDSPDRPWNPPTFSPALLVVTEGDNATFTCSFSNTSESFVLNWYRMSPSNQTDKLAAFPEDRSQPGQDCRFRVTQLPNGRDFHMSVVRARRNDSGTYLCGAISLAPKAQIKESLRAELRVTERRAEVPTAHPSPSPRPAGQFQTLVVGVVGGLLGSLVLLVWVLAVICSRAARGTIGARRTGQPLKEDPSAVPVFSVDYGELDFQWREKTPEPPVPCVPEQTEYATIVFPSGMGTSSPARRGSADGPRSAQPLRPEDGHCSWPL

T20 sequence (Q15116 25-170 limits assumed): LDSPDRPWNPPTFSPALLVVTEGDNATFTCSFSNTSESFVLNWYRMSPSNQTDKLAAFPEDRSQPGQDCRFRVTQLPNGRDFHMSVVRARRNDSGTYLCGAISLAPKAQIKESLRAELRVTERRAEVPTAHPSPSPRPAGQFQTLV

| Binder | OD490 (M4) | OD490 (M5-1) | OD490 (M10) | OD490 (M2) | OD490 (M14) | OD490 (M2-2) | OD490 (M12) | OD490 (M7-1) | OD490 (M7) | OD490 (M11) | OD490 (M6) | OD490 (M1) | OD490 (M2-1) | OD490 (M5) | OD490 (M3) | OD490 (M1-1) | OD490 (M7-2) | OD490 (M13) | OD490 (ITGA6-Fc) | EC50 [nM], PD1/PD-L1 blockade bioassay [2] | further results |
| --- | --- | --- | --- | --- | --- | --- | --- | --- | --- | --- | --- | --- | --- | --- | --- | --- | --- | --- | --- | --- | --- |
| PD1-29H3 (antibody, V domains shown, scFv-phage in the screening ELISA; later whole IgG) VH: QMQLVESGGNLVQPGRSLRLSCAASGFTFDDYGMHWVRQAPGKGLEWVSSISWNSGTIGYADSVKGRFTISRDNAKNSLYLQMNSLRSEDTAVYYCARLLHQMNEHEFMDVWGQGTTVTVSS VL: QLVLTQPSSMSEAPGQRVTISCSGGTSNIGTNAVNWYQQPPGKAPTLLIYYDDRLTSGVSDRFSGSKSGTSASLAISRLQSEDEADYYCAAWDDSLNGWVFGGGTKLTVL | 3.3 | 2 | 3 | 0.7 | 3.5 | 3.2 | 3 | 1.5 | 1.4 | 1 | 3.5 | 1.5 | 2.8 | 2 | 2.3 | 3.2 | 3.1 | 3.5 | 0.3 |  | OD490 [1]: 3.6; OD490 (M5-2): 3.7; OD490 (M1-2): 0.6; OD490 (M9): 3.4; OD490 (M8): 2.2 |
| PD1-51D9 (antibody, V domains shown, scFv-phage in the screening ELISA; whole IgG in the other assays) VH: QVQLVESGAEVKKPGASVKLSCKASGYTFSSYWMHWVRQAPGQRLEWMGEINPGNGHTNYNEKFKSRVTITVDKSASTAYMELSSLRSEDTAVYYCAREGDGSYWGYFDSWGQGTPITVSS VL: DIVMTQTPLSLPVTPGEPASISCRSSQSLLHSNGNNYLDWYLQKPGQSPQLLIYLGSYRASGVPDRFSGSGSGTDFTLKISRVEAEDVGLYYCMQGLQIPSTFGPGTKVDIK | 1.1 | 0.1 | 0.1 | 0.1 | 0.8 | 0.6 | 0.3 | 0.1 | 0.1 | 0.1 | 0.3 | 0.2 | 0.4 | 0.1 | 0.3 | 0.2 | 0.3 | 0.7 | 0.1 |  | OD490 (M5-2): 0.6; OD490 (M1-2): 0.4; OD490 (M9): 0.3; OD490 (M8): 0.1 |
| PD1-32A6 (antibody, V domains shown, scFv-phage in the screening ELISA; later whole IgG) VH: QVQLVQSGAEVKKPGSSVKVSCKASGDTFTRNAVSWVRQAPGEGLEWMADIIPIFGSANYAQKFQGRLTLTADVSTSTAYMELSSLRSEDTAVYYCARTIEGAFDIWGQGTMVTVSS VL: DIQMTQSPSSVSASVGDRVTITCRASQGIVSWLAWYQQKPGKAPRLLIYRASDLETGVPSRFSGSGSGTDFTLTISSLQPEDVATYYCQQADSFPLTFGGGTKVEIK | 2.4 | 3.6 | 2.5 | 3.2 | 1.7 | 2.7 | 2.7 | 3.1 | 3.2 | 3.3 | 2.9 | 2.4 | 2.8 | 2.9 | 3 | 2.6 | 2.8 | 0.5 | 0.3 |  | OD490 [1]: 3.5; OD490 (M5-2): 2.8; OD490 (M1-2): 2.8; OD490 (M9): 2.4; OD490 (M8): 3.1 |
| PD1-31F3 (antibody, V domains shown, scFv-phage in the screening ELISA; later whole IgG) VH: QVQLVQSGAEVKKPGSSVKVSCKASGGTFSSYAISWVRQAPGQGLEWMGGIIPLFSTAHSAQKFQGRVTITADESSSTAYMELSSLRSEDTAVYYCAKHKGLPFDWSPDGFDTWGQGTMVTVSS VL: QFVLTQPPSVSGAPGQRVIISCTGSSSNIGAGYDVHWYQQLPGTAPKVLIYGNSDRPSGVPDRFSASKSATSASLAITGLQAEDEADYYCQSYDSSLSGYVFGTGTKVTVL | 2.7 | 1.3 | 3 | 0.7 | 3.4 | 3.3 | 2.6 | 0.8 | 0.7 | 0.8 | 3.3 | 3 | 3.5 | 1.1 | 1.9 | 3 | 1.5 | 3.3 | 0.4 |  | OD490 [1]: 2; OD490 (M5-2): 3.4; OD490 (M1-2): 3.2; OD490 (M9): 3.2; OD490 (M8): 1.7 |
| PD1-49A2(A/1F12) (antibody, V domains shown) VH: QVQLVESGGGVVQPGRSLRLSCAASGFTFRNYAMHWVRQAPGKGLEWVAVISYDGQHKYYADSVKGRFTISRDNSKNTLYLQMNSLRAEDTAVYYCTTTTFDSWSQGTLVTVSS VL: DIVMTQTPHSLPVTPGEPASISCRSSQSLLDSEDGNTYLDWYLQKPGQSPQLLIYTLSHRALGVPDRFSGSGSGTDFTLKISRVEAEDSGIYYCMQRIEFPYTFGQGTKLEIK |  |  |  |  |  |  |  |  |  |  |  |  |  |  |  |  |  |  |  | 1.03 nM |  |
| PD1-49A2(A/1H4) (antibody, V domains shown) VH: QVQLVESGGGVVQPGRSLRLSCAASGFTFPIYAMHWVRQAPGKGLEWVAVISYDGAHKYYADSVKGRFTISRDNSKNTLYLQMNSLRAEDTAVYYCTTTTFDSWGQGTLVTVSS VL: DIVMTQSPLSLPVTPGEAASISCRSSQSLLDSEDGNTYLDWYLQKPGQSPQLLIYTLSHRASGVPDRFSGSGSGTDFTLKISRVEAEDSGIYYCMQRVEFPYTFGQGTKLDIK |  |  |  |  |  |  |  |  |  |  |  |  |  |  |  |  |  |  |  | 0.84 nM |  |
| PD1-49A2(A/2A11) (antibody, V domains shown) VH: QVQLVESGGGVVQPGRSLRLSCAASGFTFRSYAMHWVRQAPGKGLEWVAVISYDGQDKYYADSVKGRFTISRDNSKNTLYLQMNSLRAEDTAVYYCTTTTFDSWGQGTLVTVSS VL: DIVMTQTPLSLPVTPGEPASISCRSSQSLFDSDDGNTYLDWYLQKPGQSPRLLIYTLSHRALGVPDRFSGSGSGTDFTLKISRVAAEDVGLYYCLQRMGFPYTFGQGTKLEIK |  |  |  |  |  |  |  |  |  |  |  |  |  |  |  |  |  |  |  | 0.79 nM |  |
| PD1-74A01 (antibody, V domains shown) VH: QVQLVESGGGVVQPGRSLRLSCAASGFTFSSYAMHWVRQAPGKGLEWVAVISYDGSNKYYADSVKGRFTISRDNSKNTLYLQMNSLRSEDTAVYYCVPTTFEYWGQGSQVTVSS VL: DIVMTQTPLSLPVTPGEPASISCRSSQSLLDRGGGHTYLDWYLQKPGQSPQLLIYTLSHRASGVPDRFSGSGSGTDFTLKISRVEAEDVGIYYCMQRKEFPLTFGPGTKLEIK |  |  |  |  |  |  |  |  |  |  |  |  |  |  |  |  |  |  |  | 1.01 nM |  |
| PD1-74H12 (antibody, V domains shown) VH: QVQLVESGGGVVQPGRSLRLSCAASGFTFSSYAMHWVRQAPGKGLEWVAVISYDGSNKYYADSVKGRFTISRDNSKNMLYLEMNSLRAEDTAVYYCVPTTFEYWGQGSQVTVSS VL: DIVMTQTPLSLSVTPGEPASISCRSSQSLLDSDDGNTYLDWYLQKPGQSPQLLIYTLSHRASGVPDRFSGRGSHTDFTLTISSVEAEDVGVYYCMQRIHFPLTFGQGTRLEIK |  |  |  |  |  |  |  |  |  |  |  |  |  |  |  |  |  |  |  | 0.98 nM |  |
